Measured values: patent US20250277199, “NOVEL CRISPR-CAS NUCLEASES FROM METAGENOMES” (Brain Biotech AG, published 2025)

Target: T1, BMC05 (uncultured bacterium (metagenome))
T1 chain: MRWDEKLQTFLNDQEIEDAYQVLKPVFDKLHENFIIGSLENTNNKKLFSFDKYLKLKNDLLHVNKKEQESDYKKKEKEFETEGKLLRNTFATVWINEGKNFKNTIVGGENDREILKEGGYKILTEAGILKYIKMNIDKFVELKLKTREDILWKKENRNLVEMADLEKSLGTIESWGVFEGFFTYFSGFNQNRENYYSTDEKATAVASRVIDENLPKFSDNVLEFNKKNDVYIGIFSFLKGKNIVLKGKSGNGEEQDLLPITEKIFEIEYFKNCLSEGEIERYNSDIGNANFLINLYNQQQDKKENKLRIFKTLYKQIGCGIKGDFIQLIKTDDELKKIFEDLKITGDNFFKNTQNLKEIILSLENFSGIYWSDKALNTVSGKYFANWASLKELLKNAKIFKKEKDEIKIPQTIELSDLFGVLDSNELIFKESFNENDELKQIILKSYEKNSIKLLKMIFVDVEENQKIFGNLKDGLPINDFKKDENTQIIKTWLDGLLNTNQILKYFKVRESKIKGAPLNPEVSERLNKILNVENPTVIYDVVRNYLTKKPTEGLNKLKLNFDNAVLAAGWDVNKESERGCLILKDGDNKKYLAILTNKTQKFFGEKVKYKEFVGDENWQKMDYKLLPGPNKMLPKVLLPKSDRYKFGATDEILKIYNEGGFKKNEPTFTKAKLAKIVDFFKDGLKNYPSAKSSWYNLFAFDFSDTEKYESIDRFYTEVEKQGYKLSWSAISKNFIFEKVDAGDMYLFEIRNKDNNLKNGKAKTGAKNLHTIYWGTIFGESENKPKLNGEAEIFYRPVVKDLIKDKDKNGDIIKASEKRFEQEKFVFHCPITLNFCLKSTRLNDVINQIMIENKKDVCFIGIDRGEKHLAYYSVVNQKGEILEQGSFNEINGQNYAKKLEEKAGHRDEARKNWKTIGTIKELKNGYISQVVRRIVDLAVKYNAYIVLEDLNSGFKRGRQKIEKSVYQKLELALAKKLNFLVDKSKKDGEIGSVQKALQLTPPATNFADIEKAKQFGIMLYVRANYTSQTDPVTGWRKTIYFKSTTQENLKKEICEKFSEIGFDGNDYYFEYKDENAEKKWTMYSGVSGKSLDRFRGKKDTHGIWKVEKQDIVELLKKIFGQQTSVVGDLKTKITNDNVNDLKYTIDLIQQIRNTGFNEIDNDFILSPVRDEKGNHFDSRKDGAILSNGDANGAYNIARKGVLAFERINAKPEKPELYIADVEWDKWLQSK
Assay: cell_activity; PAM not stated; E. coli depletion, 30 C
In short: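 E. coli carrying arabinose-induced (0.2%) BMC nuclease, grown at 30° C., made electrocompetent and electroporated with 50-100 ng plasmid carrying gRNA against malQ. Transformants plated on selective M9-glucose agar with kanamycin/ampicillin (± nourseothricin), and growth scored after 48 h at 30° C.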

B1: malQ gRNA (BMC stem-loop + 24 nt spacer) ; malQ protospacer (ssRNA ; dsDNA)
RNA: GAUUUCUACUAUUGUAGAUGUGGCGGUACGUUGAUGCAUCGCG
DNA 1: GTGGCGGTACGTTGATGCATCGCG
DNA 2: CGCGATGCATCAACGTACCGCCAC
activity: > 99.9 % colony reduction
